Measurements published in US20150344570A1 (published 2015).
Read-outs that look alike come from different tables or passages of the source.

T1: FcgRIIa H (FcγRIIa type H) extracellular domain with C-terminal His tag (human, UniProt P12318 34-217)
T1 construct: extracellular domain; also called FcγRIIa H; not shown: His tag attached to the C terminus
T1 sequence (looked up): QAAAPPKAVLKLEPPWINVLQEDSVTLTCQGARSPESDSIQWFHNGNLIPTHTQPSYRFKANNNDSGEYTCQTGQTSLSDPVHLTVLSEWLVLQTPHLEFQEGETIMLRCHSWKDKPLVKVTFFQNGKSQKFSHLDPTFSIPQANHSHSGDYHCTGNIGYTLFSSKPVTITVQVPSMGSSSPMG

T2: FcgRIIa R (FcγRIIa type R) extracellular domain with C-terminal His tag (human, UniProt P12318 34-217)
T2 construct: extracellular domain; also called FcγRIIa R; not shown: His tag attached to the C terminus
T2 sequence (looked up): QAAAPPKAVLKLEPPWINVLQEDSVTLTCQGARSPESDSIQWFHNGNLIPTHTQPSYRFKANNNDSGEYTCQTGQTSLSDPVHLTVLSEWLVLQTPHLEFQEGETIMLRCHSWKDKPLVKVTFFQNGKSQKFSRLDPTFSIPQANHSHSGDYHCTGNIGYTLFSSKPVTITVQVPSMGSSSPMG

T3: FcgRIIb (FcγRIIb) extracellular domain with C-terminal His tag (human, UniProt P31994 43-217)
T3 construct: extracellular domain; not shown: His tag attached to the C terminus
T3 sequence (looked up): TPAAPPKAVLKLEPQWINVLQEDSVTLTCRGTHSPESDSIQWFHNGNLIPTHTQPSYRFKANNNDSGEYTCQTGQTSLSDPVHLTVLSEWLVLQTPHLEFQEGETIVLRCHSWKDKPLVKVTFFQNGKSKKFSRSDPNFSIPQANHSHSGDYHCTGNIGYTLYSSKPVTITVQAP


Experiments:
Assay in all cases: SPR (Biacore); KD of H240-Kn061/H240-Hl071/L73-k0 divided by KD of the variant
[1] = biological target: T1, FcgRIIa H (FcγRIIa type H) …
Method: (§1) The antibodies were assessed for the binding to each FcgR. […] The resultant value was defined as relative KD, and used as an assessment indicator.
(§2) Analysis of interaction between objective antibody and the FcγR was carried out using Biacore T100 (GE Healthcare), Biacore T200, Biacore A100, and Biacore 4000. HBS-EP+ (GE Healthcare) was used as the running buffer, and the measurement temperature was set to 25° C. Chips produced by immobilizing the antigen peptide by the amine coupling method to a Series S sensor Chip CM5 (GE Healthcare), chips produced by allowing preliminarily biotinylated antigen peptides to interact with and immobilize onto a Series S Sensor Chip SA (certified) (GE Healthcare), chips produced by immobilizing Protein L (ACTIGEN, BioVision) to Series S Sencor Chip CM5 (GE Healthcare), or chips produced by immobilizing Protein A/G (Thermo Scientific) to Series S Sencor Chip CM5 (GE Healthcare) were used. Antibodies of interest were captured onto these chips, and allowed to interact to each FcγR diluted with running buffer.

[2] = biological target: T4, FcgRIIIa V (FcγRIIIa type V) extracellular domain with C-terminal His tag (human, UniProt P08637 17-208)
T4 construct: extracellular domain; also called FcγRIIIa V; not shown: His tag attached to the C terminus
Method: as §1, §2

[3] = biological target: T2, FcgRIIa R (FcγRIIa type R) …
Method: as §1, §2

[4] = biological target: T3, FcgRIIb (FcγRIIb) extracellular domain …
Method: as §1, §2

[5] = biological target: T5, FcgRIIIa F (FcγRIIIa type F) extracellular domain with C-terminal His tag (human, UniProt P08637 17-208)
T5 construct: extracellular domain; also called FcγRIIIa F; 3aF; not shown: His tag attached to the C terminus
Method: as §1, §2

[6] = biological target: T4, FcgRIIIa V (FcγRIIIa type V) …; remark: listed apart in the source
[7] = biological target: T3, FcgRIIb (FcγRIIb) extracellular domain …; remark: listed apart in the source
[8] = biological target: T5, FcgRIIIa F (FcγRIIIa type F) …; remark: listed apart in the source

T4 sequence (P08637 17-208 F176V limits assumed): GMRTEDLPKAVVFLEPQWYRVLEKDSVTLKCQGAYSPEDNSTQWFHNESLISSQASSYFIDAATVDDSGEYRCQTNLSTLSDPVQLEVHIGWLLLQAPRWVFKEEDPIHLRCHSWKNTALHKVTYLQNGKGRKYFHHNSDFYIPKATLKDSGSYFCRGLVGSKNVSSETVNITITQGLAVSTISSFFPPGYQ
T5 sequence (P08637 17-208): as the sequence (P08637 17-208 F176V limits assumed) above, with V160F counted along it

relative KD [1] [ratio]	relative KD [2] [ratio]	relative KD [3] [ratio]	relative KD [4] [ratio]	relative KD [5] [ratio]	relative KD [6] [ratio]	relative KD [7] [ratio]	relative KD [8] [ratio]	Binder
0.5	1.3	0.5	0.2	1.2	1.3	0.2	1.2	H240-Kn061/H240-Hl071/L73-k0 variant with Y235A in H240-Kn061 (antibody, human IgG1, kappa, anti-epiregulin heterodimerized IgG1; also called H240-Kn061 Y235A) heavy 1: QDQLVQSGAEVKKPGASVKVSCKASGFNIKDTYIQWVRQAPGQGLEWMGRIDPLRKQTKYREKFEGRVTITADTSTNTAYMELSSLRSEDTAVYYCVRSGREFDYWGQGTLVTVSSASTKGPSVFPLAPSSKSTSGGTAALGCLVKDYFPEPVTVSWNSGALTSGVHTFPAVLQSSGLYSLSSVVTVPSSSLGTQTYICNVNHKPSNTKVDKKVEPKSCDKTHTCPPCPAPEYAWGPSVFLFPPKPKDTLMISRTPEVTCVVVDVSDEDPEVKFNWYVDGVEVHNAKTKPREEQYNATYRVVSVLTVLHQDWLNGKEYKCKVSNKALPAPIEKTISKAKGQPREPQVCTLPPSRDELTKNQVSLWCLVKGFYPSDIAVEWESNGQPENNYKTTPPVLDSDGSFFLYSKLTVDKSRWQQGNVFSCSVMHEALHNHYTQKSLSLSP heavy 2: QDQLVQSGAEVKKPGASVKVSCKASGFNIKDTYIQWVRQAPGQGLEWMGRIDPLRKQTKYREKFEGRVTITADTSTNTAYMELSSLRSEDTAVYYCVRSGREFDYWGQGTLVTVSSASTKGPSVFPLAPSSKSTSGGTAALGCLVKDYFPEPVTVSWNSGALTSGVHTFPAVLQSSGLYSLSSVVTVPSSSLGTQTYICNVNHKPSNTKVDKKVEPKSCDKTHTCPPCPAPELLGGPSVFLFPPKPKDTLMISRTPEVTCVVVDVSHEDPEVKFNWYVDGVEVHNAKTKPREEQYNSTYRVVSVLTVLHQDWLNGKEYKCKVSNDALPMPIEETISKAKGQPREPQVYTLPPSRCELTKNQVSLSCAVKGFYPSDIAVEWESNGQPENNYKTTPPVLDSDGSFFLVSKLTVDKSRWQQGNVFSCSVMHEALHNHYTQKSLSLSP light: DIQMTQSPSSLSASVGDRVTITCRASQDIHKYIAWYQQKPGQAPRLLIQYTSTLQPGVPSRFSGSGSGTDYTFTISSLQPEDIATYYCLQYEQLRTFGGGTKVEIKRTVAAPSVFIFPPSDEQLKSGTASVVCLLNNFYPREAKVQWKVDNALQSGNSQESVTEQDSKDSTYSLSSTLTLSKADYEKHKVYACEVTHQGLSSPVTKSFNRGEC
0.4	1.6	0.7	0.2	1.3	1.6	0.2	1.3	H240-Kn061/H240-Hl071/L73-k0 variant with Y235I in H240-Kn061 (antibody, human IgG1, kappa, anti-epiregulin heterodimerized IgG1; also called H240-Kn061 Y235I) heavy 1: QDQLVQSGAEVKKPGASVKVSCKASGFNIKDTYIQWVRQAPGQGLEWMGRIDPLRKQTKYREKFEGRVTITADTSTNTAYMELSSLRSEDTAVYYCVRSGREFDYWGQGTLVTVSSASTKGPSVFPLAPSSKSTSGGTAALGCLVKDYFPEPVTVSWNSGALTSGVHTFPAVLQSSGLYSLSSVVTVPSSSLGTQTYICNVNHKPSNTKVDKKVEPKSCDKTHTCPPCPAPEYIWGPSVFLFPPKPKDTLMISRTPEVTCVVVDVSDEDPEVKFNWYVDGVEVHNAKTKPREEQYNATYRVVSVLTVLHQDWLNGKEYKCKVSNKALPAPIEKTISKAKGQPREPQVCTLPPSRDELTKNQVSLWCLVKGFYPSDIAVEWESNGQPENNYKTTPPVLDSDGSFFLYSKLTVDKSRWQQGNVFSCSVMHEALHNHYTQKSLSLSP heavy 2: QDQLVQSGAEVKKPGASVKVSCKASGFNIKDTYIQWVRQAPGQGLEWMGRIDPLRKQTKYREKFEGRVTITADTSTNTAYMELSSLRSEDTAVYYCVRSGREFDYWGQGTLVTVSSASTKGPSVFPLAPSSKSTSGGTAALGCLVKDYFPEPVTVSWNSGALTSGVHTFPAVLQSSGLYSLSSVVTVPSSSLGTQTYICNVNHKPSNTKVDKKVEPKSCDKTHTCPPCPAPELLGGPSVFLFPPKPKDTLMISRTPEVTCVVVDVSHEDPEVKFNWYVDGVEVHNAKTKPREEQYNSTYRVVSVLTVLHQDWLNGKEYKCKVSNDALPMPIEETISKAKGQPREPQVYTLPPSRCELTKNQVSLSCAVKGFYPSDIAVEWESNGQPENNYKTTPPVLDSDGSFFLVSKLTVDKSRWQQGNVFSCSVMHEALHNHYTQKSLSLSP light: DIQMTQSPSSLSASVGDRVTITCRASQDIHKYIAWYQQKPGQAPRLLIQYTSTLQPGVPSRFSGSGSGTDYTFTISSLQPEDIATYYCLQYEQLRTFGGGTKVEIKRTVAAPSVFIFPPSDEQLKSGTASVVCLLNNFYPREAKVQWKVDNALQSGNSQESVTEQDSKDSTYSLSSTLTLSKADYEKHKVYACEVTHQGLSSPVTKSFNRGEC
0.7	1.6	1.4	0.5	1.9	1.6	0.5	1.9	H240-Kn061/H240-Hl071/L73-k0 variant with Y234E in H240-Kn061 (antibody, human IgG1, kappa, anti-epiregulin heterodimerized IgG1; also called H240-Kn061 Y234E) heavy 1: QDQLVQSGAEVKKPGASVKVSCKASGFNIKDTYIQWVRQAPGQGLEWMGRIDPLRKQTKYREKFEGRVTITADTSTNTAYMELSSLRSEDTAVYYCVRSGREFDYWGQGTLVTVSSASTKGPSVFPLAPSSKSTSGGTAALGCLVKDYFPEPVTVSWNSGALTSGVHTFPAVLQSSGLYSLSSVVTVPSSSLGTQTYICNVNHKPSNTKVDKKVEPKSCDKTHTCPPCPAPEEYWGPSVFLFPPKPKDTLMISRTPEVTCVVVDVSDEDPEVKFNWYVDGVEVHNAKTKPREEQYNATYRVVSVLTVLHQDWLNGKEYKCKVSNKALPAPIEKTISKAKGQPREPQVCTLPPSRDELTKNQVSLWCLVKGFYPSDIAVEWESNGQPENNYKTTPPVLDSDGSFFLYSKLTVDKSRWQQGNVFSCSVMHEALHNHYTQKSLSLSP heavy 2: QDQLVQSGAEVKKPGASVKVSCKASGFNIKDTYIQWVRQAPGQGLEWMGRIDPLRKQTKYREKFEGRVTITADTSTNTAYMELSSLRSEDTAVYYCVRSGREFDYWGQGTLVTVSSASTKGPSVFPLAPSSKSTSGGTAALGCLVKDYFPEPVTVSWNSGALTSGVHTFPAVLQSSGLYSLSSVVTVPSSSLGTQTYICNVNHKPSNTKVDKKVEPKSCDKTHTCPPCPAPELLGGPSVFLFPPKPKDTLMISRTPEVTCVVVDVSHEDPEVKFNWYVDGVEVHNAKTKPREEQYNSTYRVVSVLTVLHQDWLNGKEYKCKVSNDALPMPIEETISKAKGQPREPQVYTLPPSRCELTKNQVSLSCAVKGFYPSDIAVEWESNGQPENNYKTTPPVLDSDGSFFLVSKLTVDKSRWQQGNVFSCSVMHEALHNHYTQKSLSLSP light: DIQMTQSPSSLSASVGDRVTITCRASQDIHKYIAWYQQKPGQAPRLLIQYTSTLQPGVPSRFSGSGSGTDYTFTISSLQPEDIATYYCLQYEQLRTFGGGTKVEIKRTVAAPSVFIFPPSDEQLKSGTASVVCLLNNFYPREAKVQWKVDNALQSGNSQESVTEQDSKDSTYSLSSTLTLSKADYEKHKVYACEVTHQGLSSPVTKSFNRGEC
